In article PMC11063902:
Like-named read-outs stand apart in the source and are kept apart here.

Legend:
[1] = target: eIF4A•eIF4G_(711-1104)-Fl (UniProt Q04637); assay: fluorescence polarisation; as a3 with 200 nM eIF3 added (subsaturating, ~50% of eIF4G-Fl bound); 20 nM eIF4G-Fl, 3 uM eIF4A, 40S subunit titrated; 0.5 mM ATP/MgCl2
[2] = target: eIF4A•eIF4G_(682-1104)-Fl (UniProt Q04637); assay: as above
[3] = target: eIF4A•eIF4G_(711-1104)-Fl (UniProt Q04637); assay: fluorescence polarisation; 20 nM eIF4G-Fl with 3 uM eIF4A, 40S subunit titrated; Binding Buffer (20 mM Tris acetate pH 7.5, 70 mM KCl, 2 mM free Mg2+, 0.1 mM spermidine, 1 mM DTT, 10% glycerol, 0.1 mg/ml BSA) with 0.5 mM ATP/MgCl2; 10 min ice, 5 min 30 °C, 10 min room temperature
[4] = target: eIF4A•eIF4G_(682-1104)-Fl (UniProt Q04637); assay: as above
eIF4G721-1104 (human) = assay: fluorescence anisotropy; conditions: text gives 4.60 ± 0.47 uM; uncapped; 20 mM Tris acetate pH 7.5, 70 mM KCl, 2 mM free Mg2+ (Mg acetate), 0.1 mM spermidine, 1 mM DTT, 10% glycerol, 0.1 mg/ml …; 20 nM RNA; 30 °C for 5 min
eIF4G682-1104 (human) = assay: fluorescence anisotropy; conditions: uncapped; 20 mM Tris acetate pH 7.5, 70 mM KCl, 2 mM free Mg2+ (Mg acetate), 0.1 mM spermidine, 1 mM DTT, 10% glycerol, 0.1 mg/ml BSA; 20 nM RNA; 30 °C for 5 min
[5] = target: eIF4G_(721-1104)-Fl (S1041C) (human) (UniProt Q04637); assay: fluorescence polarisation; eIF4G_(721-1104)-Fl (fluorescein at S1041C) titrated with eIF3 or eIF3-PR∗; carried out as described previously (ref. 7)
[6] = target: eIF4G_(721-1104)-Fl (S1041C) (human) (UniProt Q04637); assay: as above; remark: listed apart in the source

## 40S ribosomal subunit (complex)
[1]
  KD with 200 nM eIF3: 248 nM
[2]
  KD with 200 nM eIF3: 76 nM
[3]
  Kd: 563 nM
[4]
  Kd: 129 nM

## CAA-42-FL (42-mer RNA-Fl)
eIF4G721-1104 (human)
  Kd: 4600 nM
eIF4G682-1104 (human)
  Kd: 463 nM

## eIF3 (intact multi-subunit complex) (from UniProt O15371 1-548; Q99613 1-913; O75822 1-258)
[5]
  Kd: 124 nM
[6]
  Kd: 81 nM

## eIF3-PR∗ (eIF3 cleaved by HIV-1 PR and purified by size exclusion chromatography) (from UniProt O15371 1-114; Q99613 1-913) (complex)
[5]
  Kd: 75 nM
[6]
  Kd: 127 nM
